# Measured values taken from IntAct's records for PubMed 20588253.
# B1: Mitogen-activated protein kinase kinase kinase 2 (Homo sapiens), Q9Y2U5 (parent)
# chain: MDDQQALNSIMQDLAVLHKASRPALSLQETRKAKSSSPKKQNDVRVKFEHRGEKRILQFPRPVKLEDLRSKAKIAFGQSMDLHYTNNELVIPLTTQDDLDKAVELLDRSIHMKSLKILLVINGSTQATNLEPLPSLEDLDNTVFGAERKKRLSIIGPTSRDRSSPPPGYIPDELHQVARNGSFTSINSEGEFIPESMDQMLDPLSLSSPENSGSGSCPSLDSPLDGESYPKSRMPRAQSYPDNHQEFSDYDNPIFEKFGKGGTYPRRYHVSYHHQEYNDGRKTFPRARRTQGTSLRSPVSFSPTDHSLSTSSGSSIFTPEYDDSRIRRRGSDIDNPTLTVMDISPPSRSPRAPTNWRLGKLLGQGAFGRVYLCYDVDTGRELAVKQVQFDPDSPETSKEVNALECEIQLLKNLLHERIVQYYGCLRDPQEKTLSIFMEYMPGGSIKDQLKAYGALTENVTRKYTRQILEGVHYLHSNMIVHRDIKGANILRDSTGNVKLGDFGASKRLQTICLSGTGMKSVTGTPYWMSPEVISGEGYGRKADIWSVACTVVEMLTEKPPWAEFEAMAAIFKIATQPTNPKLPPHVSDYTRDFLKRIFVEAKLRPSADELLRHMFVHYH
# Variants of: B1
# Conditions: with chip_human STUB1, Q9UNE7
# Chain of chip_human STUB1, Q9UNE7 (Q9UNE7 whole entry): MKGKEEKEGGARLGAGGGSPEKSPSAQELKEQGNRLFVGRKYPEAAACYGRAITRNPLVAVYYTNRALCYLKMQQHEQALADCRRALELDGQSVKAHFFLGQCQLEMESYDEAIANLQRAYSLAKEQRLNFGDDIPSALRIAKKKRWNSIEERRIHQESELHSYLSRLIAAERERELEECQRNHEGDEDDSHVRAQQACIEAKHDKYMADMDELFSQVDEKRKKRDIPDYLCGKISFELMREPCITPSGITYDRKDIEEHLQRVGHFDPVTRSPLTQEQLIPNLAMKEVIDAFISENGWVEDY
row,effect of a mutation on the interaction,Variant
1,disrupting interaction,K385M

# Variants of: B1
# Conditions: with chip_human STUB1, Q9UNE7
# Remark: another data set of the same source
row,effect of a mutation on the interaction,Variant
1,increasing interaction,K385M

# Variants of: B1
# Conditions: with ubc_human UBC
row,effect of a mutation on the interaction,Variant
1,disrupting interaction,K385M
